{"source": "paper PMC3985756", "about": "(Biochemistry, 2014)", "proteins": {"B1": {"name": "N-terminal six-His-tagged FosB from Staphylococcus aureus with a bacillithiol-Cys9 disulfide bond (enzyme)", "chain": "not shown", "modifications": "Cys9 in a disulfide bond with bacillithiol (BS-Cys9)"}}, "target": "the molecule itself", "test": "crystal structure", "data": [{"protein": "B1", "values": [{"measurement": "stoichiometry N", "value": 2}]}]}
